Columns and labels:
[1] = molecular target: photosystem I (PSI) monomer (Synechocystis sp. PCC 6803) (UniProt P29254)
[2] = molecular target: photosystem I (PSI) monomer (Synechocystis sp. PCC 6803) (UniProt P29254); assay: cryo-EM structure; native PSI3-IsiA18 supercomplex co-purified from Synechocystis sp. PCC 6803 membranes in DDM; 30 mM Tricine-NaOH pH 8, 75 mM NaCl, 0.02% DDM; 1.5 mg chlorophyll/ml; vitrified on holey carbon grids; C3 symmetry expansion and multibody refinement

iron-stressed induced protein A (IsiA), sequence (Q55274 whole entry): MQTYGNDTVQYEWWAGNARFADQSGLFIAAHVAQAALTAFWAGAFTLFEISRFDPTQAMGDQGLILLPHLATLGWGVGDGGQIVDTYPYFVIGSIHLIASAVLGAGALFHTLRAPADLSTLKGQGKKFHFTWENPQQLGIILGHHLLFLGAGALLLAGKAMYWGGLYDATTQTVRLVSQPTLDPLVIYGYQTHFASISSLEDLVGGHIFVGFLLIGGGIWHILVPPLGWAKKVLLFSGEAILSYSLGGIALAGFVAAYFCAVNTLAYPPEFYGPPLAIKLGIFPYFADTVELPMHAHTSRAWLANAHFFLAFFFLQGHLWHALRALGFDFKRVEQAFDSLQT
photosystem I (PSI) monomer (Synechocystis sp. PCC 6803), sequence (P29254 whole entry, looked up): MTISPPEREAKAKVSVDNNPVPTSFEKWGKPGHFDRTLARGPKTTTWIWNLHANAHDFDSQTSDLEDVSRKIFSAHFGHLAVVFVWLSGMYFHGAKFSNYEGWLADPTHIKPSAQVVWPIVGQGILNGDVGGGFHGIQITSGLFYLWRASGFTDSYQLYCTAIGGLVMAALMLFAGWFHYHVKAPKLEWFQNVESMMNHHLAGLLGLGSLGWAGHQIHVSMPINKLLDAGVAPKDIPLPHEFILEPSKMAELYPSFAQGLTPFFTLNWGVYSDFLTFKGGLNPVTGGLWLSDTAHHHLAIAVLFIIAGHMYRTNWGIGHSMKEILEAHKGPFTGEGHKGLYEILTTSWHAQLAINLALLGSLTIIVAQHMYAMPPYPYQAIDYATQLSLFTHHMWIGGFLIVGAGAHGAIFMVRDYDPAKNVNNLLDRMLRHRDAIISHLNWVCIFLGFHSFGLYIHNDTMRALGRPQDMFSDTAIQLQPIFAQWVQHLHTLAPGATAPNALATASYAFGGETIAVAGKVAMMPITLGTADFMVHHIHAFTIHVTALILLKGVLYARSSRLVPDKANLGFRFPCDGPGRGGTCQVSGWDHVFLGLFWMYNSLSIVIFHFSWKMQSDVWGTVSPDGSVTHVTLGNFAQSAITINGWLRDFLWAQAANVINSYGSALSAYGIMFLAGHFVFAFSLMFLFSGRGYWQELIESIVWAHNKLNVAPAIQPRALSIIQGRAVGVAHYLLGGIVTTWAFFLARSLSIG

| Substance | single-molecule fluorescence lifetime: share of complexes with bi-exponential decay at all intensity levels (partially coupled, population II) [1] [%] | single-molecule fluorescence lifetime: share of complexes with fast mono-exponential decay at all intensity levels (continuously coupled) [1] [%] | single-molecule fluorescence lifetime: share of complexes with mono-exponential levels interleaved with bi-exponential levels (transiently coupled, population I) [1] [%] | stoichiometry N [2] |
| --- | --- | --- | --- | --- |
| iron-stressed induced protein A (IsiA) (from UniProt Q55274 1-342) (natural protein) | 4 | 60 | 36 |  |
| photosystem I (PSI) monomer (from UniProt P29254 1-751; P29255 1-731; P29256 24-165; Q55329 1-40; P72712 1-86) (complex) |  |  |  | 3 |
